{"source": "patent US20040063148A1", "key": {"Gαt-rod peptide": {"system": "T1, Gαt-rod peptide", "T1 sequence": "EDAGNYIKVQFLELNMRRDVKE"}, "Bovine brain calmodulin": {"target": "Bovine brain calmodulin (UniProt P62157)"}}, "data": [{"substance": "PDE1A1 of bovine taste tissue (PDE of anion exchange fraction 11)", "values": [{"measurement": "PDE activity of fraction 11 (1 µM cGMP as substrate), 100 µM peptide", "setting": "Gαt-rod peptide", "result": "The PDE activities of both fractions 6 and 11 are stimulated by the presence of the Gαt-rod peptide"}]}, {"substance": "PDE1A7 of bovine taste tissue (PDE of anion exchange fractions 6-7)", "values": [{"measurement": "PDE activity of fraction 6 (1 µM cGMP as substrate), 100 µM peptide", "setting": "Gαt-rod peptide", "result": "The PDE activities of both fractions 6 and 11 are stimulated by the presence of the Gαt-rod peptide"}]}, {"substance": "PDE4 of bovine taste tissue (anion exchange fractions 19-23)", "values": [{"measurement": "cAMP hydrolyzing activity of fractions 19-23, 1 mM CaCl2 and 4 µg/ml CaM", "setting": "Bovine brain calmodulin", "result": "The cAMP hydrolyzing activity of this forth peak is neither Ca^2+/CaM nor Gαt-rod peptide dependent"}, {"measurement": "cAMP hydrolyzing activity of fractions 19-23, 100 µM peptide", "setting": "Gαt-rod peptide", "result": "The cAMP hydrolyzing activity of this forth peak is neither Ca^2+/CaM nor Gαt-rod peptide dependent"}]}]}
